The source of these data is the RNAGym collection of RNA variant scans (doi:10.1093/molbev/msab373).

B1: Azoarcus group I ribozyme (parent)
chain: GUGCCUUGCGCCGGGAAACCACGCAAGGGAUGGUGUCAAAUUCGGCGAAACCUAAGCGCCCGCCCGGGCGUAUGGCAACGCCGAGCCAAGCUUCGGCGCCUGCGCCGAUGAAGGUGUAGAGACUAGACGGCACCCACCUAAGGCAAACGCUAUGGUGAAGGCAUAGUCCAGGGAGUGGCGAAAGUCACACAAACCGG

The data set covers variants of B1. In words: reverse-splicing fitness (ratio to wild type); higher = more active; in vitro selection; Mg2+ level not given. Put shortly: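 An in vitro group I ribozyme library with randomized positions was T7-transcribed and gel-purified. In triplicate, 10 pmol RNA in EPPS pH 7.5 was reacted with 50 pmoles of a 30-nt RNA substrate for 1 h at 37 °C across several added MgCl2 levels (1–48 mM), then stopped with EDTA. Products were reverse transcribed from a substrate-complementary primer, PCR-amplified and sequenced (HiSeq 4000). Fitness is a variant's read proportion after selection over that before, normalised to wild type.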
GUGCCUUGCGCCGGGAAACCACGCAAGGGAUGGUGUCAAAUUCGGCGAAACCUAAGCGCCCGCCCGGGCGUAUGGCAACGCAGAGCCAAGCUUCGGCGCCUGCGCCGAUGUAGGUGUAGGGACUAGACGGCACCCACCUAAGGCCAACGCUAUGGUGAAGGCAUAGUCGAGGGAGAGGCGAAAGUCACACAAACCGG [C82A A111U A120G A145C C169G U176A]: the reverse-splicing fitness stood at 0.0247.

On to GUGCCUUGCGCCGGGAAACCACGCAAGGGAUGGUGUCAAAUUCGGCGAAACCUAAGCGCCCGCCCGGGCGUAUGGCAACGCAGAGCCAAGCUUCGGCGCCUGCGCCGAUGUAGGUGUAGGGACUAGACGGCACCCACCUAAGGCCAACGCUAUGGUGAAGGCAUAGUCGAGGGAGGGGCGAAAGUCACACAAACCGG [C82A A111U A120G A145C C169G U176G], for which the reverse-splicing fitness is 0.00418.

As for GUGCCUUGCGCCGGGAAACCACGCAAGGGAUGGUGUCAAAUUCGGCGAAACCUAAGCGCCCGCCCGGGCGUAUGGCAACGCAGAGCCAAGCUUCGGCGCCUGCGCCGAUGUAGGUGUAGGGACUAGACGGCACCCACCUAAGGCCAACGUUAUGGUGAAGGCAUAGUCCAGGGAGUGGCGAAAGUCACACAAACCGG [C82A A111U A120G A145C C150U], the reverse-splicing fitness came out at 0.00935. In the case of GUGCCUUGCGCCGGGAAACCACGCAAGGGAUGGUGUCAAAUUCGGCGAAACCUAAGCGCCCGCCCGGGCGUAUGGCAACGCAGAGCCAAGCUUCGGCGCCUGCGCCGAUGUAGGUGUAGGGACUAGACGGCACCCACCUAAGGCCAACGUUAUGGUGAAGGCAUAGUCUAGGGAGAGGCGAAAGUCACACAAACCGG [C82A A111U A120G A145C C150U C169U U176A], the reverse-splicing fitness came to 0.0202.

GUGCCUUGCGCCGGGAAACCACGCAAGGGAUGGUGUCAAAUUCGGCGAAACCUAAGCGCCCGCCCGGGCGUAUGGCAACGCAGAGCCAAGCUUCGGCGCCUGCGCCGAUGUAGGUGUAGGGACUAGACGGCACCCACCUAAGGCCAACGUUAUGGUGAAGGCAUAGUCUAGGGAGGGGCGAAAGUCACACAAACCGG [C82A A111U A120G A145C C150U C169U U176G]: the reverse-splicing fitness turned out to be 0.00596. In the case of GUGCCUUGCGCCGGGAAACCACGCAAGGGAUGGUGUCAAAUUCGGCGAAACCUAAGCGCCCGCCCGGGCGUAUGGCAACGCAGAGCCAAGCUUCGGCGCCUGCGCCGAUGUAGGUGUAGGGACUAGACGGCACCCACCUAAGGCCAACGUUAUGGUGAAGGCAUAGUCUAGGGAGCGGCGAAAGUCACACAAACCGG [C82A A111U A120G A145C C150U C169U U176C], the reverse-splicing fitness is 0.0127.

Turning to GUGCCUUGCGCCGGGAAACCACGCAAGGGAUGGUGUCAAAUUCGGCGAAACCUAAGCGCCCGCCCGGGCGUAUGGCAACGCAGAGCCAAGCUUCGGCGCCUGCGCCGAUGUAGGUGUAGGGACUAGACGGCACCCACCUAAGGCCAACGUUAUGGUGAAGGCAUAGUCGAGGGAGCGGCGAAAGUCACACAAACCGG [C82A A111U A120G A145C C150U C169G U176C], the reverse-splicing fitness is 0.0134. As for GUGCCUUGCGCCGGGAAACCACGCAAGGGAUGGUGUCAAAUUCGGCGAAACCUAAGCGCCCGCCCGGGCGUAUGGCAACGCAGAGCCAAGCUUCGGCGCCUGCGCCGAUGUAGGUGUAGGGACUAGACGGCACCCACCUAAGGCCAACGUUAUGGUGAAGGCAUAGUCGAGGGAGAGGCGAAAGUCACACAAACCGG [C82A A111U A120G A145C C150U C169G U176A], the figure is 0.0224; as for GUGCCUUGCGCCGGGAAACCACGCAAGGGAUGGUGUCAAAUUCGGCGAAACCUAAGCGCCCGCCCGGGCGUAUGGCAACGCAGAGCCAAGCUUCGGCGCCUGCGCCGAUGUAGGUGUAGGGACUAGACGGCACCCACCUAAGGCCAACGUUAUGGUGAAGGCAUAGUCGAGGGAGGGGCGAAAGUCACACAAACCGG [C82A A111U A120G A145C C150U C169G U176G], 0.00608. As to GUGCCUUGCGCCGGGAAACCACGCAAGGGAUGGUGUCAAAUUCGGCGAAACCUAAGCGCCCGCCCGGGCGUAUGGCAACGCAGAGCCAAGCUUCGGCGCCUGCGCCGAUGUAGGUGUAGGGACUAGACGGCACCCACCUAAGGCCAACGGUAUGGUGAAGGCAUAGUCCAGGGAGGGGCGAAAGUCACACAAACCGG [C82A A111U A120G A145C C150G U176G], the reverse-splicing fitness was 0.00318. On to GUGCCUUGCGCCGGGAAACCACGCAAGGGAUGGUGUCAAAUUCGGCGAAACCUAAGCGCCCGCCCGGGCGUAUGGCAACGCAGAGCCAAGCUUCGGCGCCUGCGCCGAUGUAGGUGUAGGGACUAGACGGCACCCACCUAAGGCCAACGGUAUGGUGAAGGCAUAGUCCAGGGAGCGGCGAAAGUCACACAAACCGG [C82A A111U A120G A145C C150G U176C], for which the reverse-splicing fitness is 0.00759. Take GUGCCUUGCGCCGGGAAACCACGCAAGGGAUGGUGUCAAAUUCGGCGAAACCUAAGCGCCCGCCCGGGCGUAUGGCAACGCAGAGCCAAGCUUCGGCGCCUGCGCCGAUGUAGGUGUAGGGACUAGACGGCACCCACCUAAGGCCAACGGUAUGGUGAAGGCAUAGUCCAGGGAGAGGCGAAAGUCACACAAACCGG [C82A A111U A120G A145C C150G U176A]: the reverse-splicing fitness is 0.00504. For the variant GUGCCUUGCGCCGGGAAACCACGCAAGGGAUGGUGUCAAAUUCGGCGAAACCUAAGCGCCCGCCCGGGCGUAUGGCAACGCAGAGCCAAGCUUCGGCGCCUGCGCCGAUGUAGGUGUAGGGACUAGACGGCACCCACCUAAGGCCAACGUUAUGGUGAAGGCAUAGUCCAGGGAGGGGCGAAAGUCACACAAACCGG [C82A A111U A120G A145C C150U U176G], the reverse-splicing fitness came to 0.00589.

As to GUGCCUUGCGCCGGGAAACCACGCAAGGGAUGGUGUCAAAUUCGGCGAAACCUAAGCGCCCGCCCGGGCGUAUGGCAACGCAGAGCCAAGCUUCGGCGCCUGCGCCGAUGUAGGUGUAGGGACUAGACGGCACCCACCUAAGGCCAACGUUAUGGUGAAGGCAUAGUCCAGGGAGAGGCGAAAGUCACACAAACCGG [C82A A111U A120G A145C C150U U176A], the reverse-splicing fitness was determined as 0.0105.

Regarding GUGCCUUGCGCCGGGAAACCACGCAAGGGAUGGUGUCAAAUUCGGCGAAACCUAAGCGCCCGCCCGGGCGUAUGGCAACGCAGAGCCAAGCUUCGGCGCCUGCGCCGAUGUAGGUGUAGGGACUAGACGGCACCCACCUAAGGCCAACGUUAUGGUGAAGGCAUAGUCCAGGGAGCGGCGAAAGUCACACAAACCGG [C82A A111U A120G A145C C150U U176C], the reverse-splicing fitness is 0.0114.
